Reference: PMC8199271

Target: T1, wild-type MBP–CHIP (C-terminus of HSC70-interacting protein, encoded by STUB1) (human), Q9UNE7
T1 chain: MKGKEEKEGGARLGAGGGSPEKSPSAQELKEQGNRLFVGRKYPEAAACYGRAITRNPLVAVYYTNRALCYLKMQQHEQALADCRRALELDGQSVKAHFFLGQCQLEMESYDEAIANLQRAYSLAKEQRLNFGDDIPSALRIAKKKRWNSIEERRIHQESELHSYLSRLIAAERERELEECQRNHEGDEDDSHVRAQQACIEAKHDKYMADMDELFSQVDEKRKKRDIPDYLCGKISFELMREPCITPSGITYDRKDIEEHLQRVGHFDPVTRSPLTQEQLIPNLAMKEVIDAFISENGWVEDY
Assay: native gel or EMSA; 5 µg MBP–CHIP in Native Sample Buffer on a 10% gel, 4 °C, 3 h at 140 V, Tris/glycine (25 mM Tris, 192 mM glycine) pH 8.3; Coomassie staining, bands analysed by Fiji (ImageJ); self-association (monomer, dimer, higher-order oligomers)
Details: remark: other sources report otherwise

B1: wild-type MBP–CHIP (C-terminus of HSC70-interacting protein, encoded by STUB1), Q9UNE7-1 1-303 (natural protein)
chain: MKGKEEKEGGARLGAGGGSPEKSPSAQELKEQGNRLFVGRKYPEAAACYGRAITRNPLVAVYYTNRALCYLKMQQHEQALADCRRALELDGQSVKAHFFLGQCQLEMESYDEAIANLQRAYSLAKEQRLNFGDDIPSALRIAKKKRWNSIEERRIHQESELHSYLSRLIAAERERELEECQRNHEGDEDDSHVRAQQACIEAKHDKYMADMDELFSQVDEKRKKRDIPDYLCGKISFELMREPCITPSGITYDRKDIEEHLQRVGHFDPVTRSPLTQEQLIPNLAMKEVIDAFISENGWVEDY
- stoichiometry N: 2
